From US20140213772A1 (AbbVie / Abbott, published 2014)

B1: CODH3 (bispecific antibody)
chain 1: EVQLVESGGGVVQPGRSLRLSCSASGFIFSRYDMSWVRQAPGKGLEWVAYISHGGAGTYYPDSVKGRFTISRDNSKNTLFLQMDSLRPEDTGVYFCARGGVTKGYFDVWGQGTPVTVSSGEVQLVQSGAEVKKPGESVKISCKASGGSFRSYGISWVRQAPGQGLEWMGGITHFFGITDYAQKFQGRVTITADESTTTAYMELSGLTSDDTAVYYCAREPNDFWGGYYDTHDFDSWGQGTTVTVSSGG
chain 2: EIVLTQSPDFQSVTPKEKVTITCRASQNIGSELHWYQQKPDQSPKLLIKYASHSISGVPSRFSGSGSGTDFTLTINGLEAEDAATYYCHQSDTLPHTFGQGTKVDIKGGGGGGGDIQMTQSPSSLSASVGDRVTITCRASGNIHNYLTWYQQTPGKAPKLLIYNAKTLADGVPSRFSGSGSGTDYTFTISSLQPEDIATYYCQHFWSIPYTFGQGTKLQITGGGGGR
B2: CODH15 (bispecific antibody)
chain 1: EIVLTQSPDFQSVTPKEKVTITCRASQNIGSELHWYQQKPDQSPKLLIKYASHSISGVPSRFSGSGSGTDFTLTINGLEAEDAATYYCHQSDTLPHTFGQGTKVDIKGGGGGGGDIQMTQSPSSLSASVGDRVTITCRASGNIHNYLTWYQQTPGKAPKLLIYNAKTLADGVPSRFSGSGSGTDYTFTISSLQPEDIATYYCQHFWSIPYTFGQGTKLQITGGGGG
chain 2: EVQLVESGGGVVQPGRSLRLSCSASGFIFSRYDMSWVRQAPGKGLEWVAYISHGGAGTYYPDSVKGRFTISRDNSKNTLFLQMDSLRPEDTGVYFCARGGVTKGYFDVWGQGTPVTVSSGEVQLVQSGAEVKKPGESVKISCKASGGSFRSYGISWVRQAPGQGLEWMGGITHFFGITDYAQKFQGRVTITADESTTTAYMELSGLTSDDTAVYYCAREPNDFWGGYYDTHDFDSWGQGTTVTVSSGGR
B3: CODH1 (bispecific antibody)
chain 1: EVQLQESGPGLVKPSETLSLTCTVSGFSLSDYGVSWIRQPPGKGLEWLGLIWGGGDTYYNSPLKSRLTISKDNSKSQVSLKLSSVTAADTAVYYCAKQRTLWGYDLYGMDYWGQGTLVTVSSGEVQLVQSGAEVKKPGESVKISCKASGGSFRSYGISWVRQAPGQGLEWMGGITHFFGITDYAQKFQGRVTITADESTTTAYMELSGLTSDDTAVYYCAREPNDFWGGYYDTHDFDSWGQGTTVTVSSGG
chain 2: EIVLTQSPDFQSVTPKEKVTITCRASQNIGSELHWYQQKPDQSPKLLIKYASHSISGVPSRFSGSGSGTDFTLTINGLEAEDAATYYCHQSDTLPHTFGQGTKVDIKGGGGGGGDTQVTQSPSSLSASVGDRVTITCITSTDIDVDMNWYQQKPGKPPKLLISQGNTLRPGVPSRFSSSGSGTDFTFTISSLQPEDFATYYCLQSDNLPLTFGQGTKLEIKGGGGGR
B4: AB274 (antibody, V domains shown)
VH: EVQLVQSGAEVKKPGSSVKVSCKASGGSFGGYGIGWVRQAPGQGLEWMGGITPFFGFADYAQKFQGRVTITADESTTTAYMELSGLTSDDTAVYYCARDPNEFWNGYYSTHDFDSWGQGTTVTVSS
VL: EIVLTQSPDFQSVTPKEKVTITCRASQDIGSELHWYQQKPDQPPKLLIKYASHSTSGVPSRFSGSGSGTDFTLTINGLEAEDAGTYYCHQTDSLPYTFGPGTKVDIKR
B5: AB461 (antibody, V domains shown)
VH: EVQLVQSGAEVKKPGESVKISCKASGGSFRSYGISWVRQAPGQGLEWMGGITHFFGITDYAQKFQGRVTITADESTTTAYMELSGLTSDDTAVYYCAREPNDFWGGYYDTHDFDSWGQGTTVTVSS
VL: EIVLTQSPDFQSVTPKEKVTITCRASQNIGSELHWYQQKPDQSPKLLIKYASHSISGVPSRFSGSGSGTDFTLTINGLEAEDAATYYCHQSDTLPHTFGQGTKVDIK
notes: Benchmark anti-IL-17 mAb; also called B6-5G
B6: AB270 (antibody, V domains shown)
VH: EVQLQESGPGLVKPSETLSLTCTVSGFSLSDYGVSWIRQPPGKGLEWLGLIWGGGDTYYNSPLKSRLTISKDNSKSQVSLKLSSVTAADTAVYYCAKQRTLWGYDLYGMDYWGQGTLVTVSS
VL: DTQVTQSPSSLSASVGDRVTITCITSTDIDVDMNWYQQKPGKPPKLLISQGNTLRPGVPSRFSSSGSGTDFTFTISSLQPEDFATYYCLQSDNLPLTFGQGTKLEIK
notes: Benchmark anti-IL-1B mAb; also called 1B12.1; 1B12-1
B7: CODH2 (bispecific antibody)
chain 1: EVQLVQSGAEVKKPGESVKISCKASGGSFRSYGISWVRQAPGQGLEWMGGITHFFGITDYAQKFQGRVTITADESTTTAYMELSGLTSDDTAVYYCAREPNDFWGGYYDTHDFDSWGQGTTVTVSSGEVQLQESGPGLVKPSETLSLTCTVSGFSLSDYGVSWIRQPPGKGLEWLGLIWGGGDTYYNSPLKSRLTISKDNSKSQVSLKLSSVTAADTAVYYCAKQRTLWGYDLYGMDYWGQGTLVTVSSGG
chain 2: DTQVTQSPSSLSASVGDRVTITCITSTDIDVDMNWYQQKPGKPPKLLISQGNTLRPGVPSRFSSSGSGTDFTFTISSLQPEDFATYYCLQSDNLPLTFGQGTKLEIKGGGGGGGEIVLTQSPDFQSVTPKEKVTITCRASQNIGSELHWYQQKPDQSPKLLIKYASHSISGVPSRFSGSGSGTDFTLTINGLEAEDAATYYCHQSDTLPHTFGQGTKVDIKGGGGGR
B8: CODH4 (bispecific antibody)
chain 1: EVQLVQSGAEVKKPGESVKISCKASGGSFRSYGISWVRQAPGQGLEWMGGITHFFGITDYAQKFQGRVTITADESTTTAYMELSGLTSDDTAVYYCAREPNDFWGGYYDTHDFDSWGQGTTVTVSSGEVQLVESGGGVVQPGRSLRLSCSASGFIFSRYDMSWVRQAPGKGLEWVAYISHGGAGTYYPDSVKGRFTISRDNSKNTLFLQMDSLRPEDTGVYFCARGGVTKGYFDVWGQGTPVTVSSGG
chain 2: DIQMTQSPSSLSASVGDRVTITCRASGNIHNYLTWYQQTPGKAPKLLIYNAKTLADGVPSRFSGSGSGTDYTFTISSLQPEDIATYYCQHFWSIPYTFGQGTKLQITGGGGGGGEIVLTQSPDFQSVTPKEKVTITCRASQNIGSELHWYQQKPDQSPKLLIKYASHSISGVPSRFSGSGSGTDFTLTINGLEAEDAATYYCHQSDTLPHTFGQGTKVDIKGGGGGR
B9: CODH12 (bispecific antibody)
chain 1: EVQLVESGGGVVQPGRSLRLSCSASGFIFSRYDMSWVRQAPGKGLEWVAYISHGGAGTYYPDSVKGRFTISRDNSKNTLFLQMDSLRPEDTGVYFCARGGVTKGYFDVWGQGTPVTVSSGGGGSGGGEIVLTQSPDFQSVTPKEKVTITCRASQNIGSELHWYQQKPDQSPKLLIKYASHSISGVPSRFSGSGSGTDFTLTINGLEAEDAATYYCHQSDTLPHTFGQGTKVDIKGGSGG
chain 2: EVQLVQSGAEVKKPGESVKISCKASGGSFRSYGISWVRQAPGQGLEWMGGITHFFGITDYAQKFQGRVTITADESTTTAYMELSGLTSDDTAVYYCAREPNDFWGGYYDTHDFDSWGQGTTVTVSSGGGGSGGGDIQMTQSPSSLSASVGDRVTITCRASGNIHNYLTWYQQTPGKAPKLLIYNAKTLADGVPSRFSGSGSGTDYTFTISSLQPEDIATYYCQHFWSIPYTFGQGTKLQITGGGR
B10: AB441 (antibody, V domains shown)
VH: EVQLVQSGAEVKKPGASVKVSCKASGYTFANYGIIWVRQAPGQGLEWMGWINTYTGKPTYAQKFQGRVTMTTDTSTSTAYMELSSLRSEDTAVYYCARKLFTTMDVTDNAMDYWGQGTTVTVSS
VL: DIQMTQSPSSLSASVGDRVTITCRASQDISQYLNWYQQKPGKAPKLLIYYTSRLQSGVPSRFSGSGSGTDFTLTISSLQPEDFATYFCQQGNTWPPTFGQGTKLEIKR

Columns and labels:
[1] = target: T1, IL-1B (UniProt P01584 117-269); experiment: SPR (Biacore)
[2] = target: T2, IL-17 (UniProt Q16552 24-155); experiment: SPR (Biacore)
[3] = target: T1, IL-1B; experiment: cell-based or functional assay
[4] = target: T2, IL-17; experiment: cell-based or functional assay
[5] = target: T2, IL-17; experiment: ELISA
[6] = target: T2, IL-17; experiment: cell-based or functional assay; remark: listed apart in the source
[7] = target: T3, TNF (UniProt P01375 77-233); experiment: ELISA
[8] = target: T3, TNF; experiment: cell-based or functional assay

T2 sequence (Q16552 24-155 limits assumed): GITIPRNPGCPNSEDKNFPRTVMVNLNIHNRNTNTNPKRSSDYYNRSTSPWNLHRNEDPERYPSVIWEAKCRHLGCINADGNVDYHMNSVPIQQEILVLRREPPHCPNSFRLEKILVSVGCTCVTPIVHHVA
T3 sequence (P01375 77-233 limits assumed): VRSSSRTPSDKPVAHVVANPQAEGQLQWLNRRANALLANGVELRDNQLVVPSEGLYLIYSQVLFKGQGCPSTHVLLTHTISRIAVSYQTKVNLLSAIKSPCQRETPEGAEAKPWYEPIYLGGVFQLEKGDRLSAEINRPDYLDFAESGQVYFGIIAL

Binder | Kd [1] [nM] | Kd [2] [nM] | IL-1B neutralization IC50 (pM) [3] [pM] | IL-17 neutralization IC50 (pM) [4] [pM] | EC50 [5] [nM] | Neutralization IC50 (pM), IL-17 [6] [pM] | EC50 [7] [nM] | Neutralization IC50 (pM), TNF [8] [pM]
B1 | 0.13 | < 0.0002 | 1160 | 12 |  |  |  | 
B2 | 390 |  | 1660 | 7.4 |  |  |  | 
B3 | 0.19 | < 0.0001 | 1300 | 30 |  |  |  | 
B4 |  |  |  |  | 0.203 | 10 |  | 
B5 |  | 0.0009 |  | 2 |  |  |  | 
B6 | 0.089 |  | 245 |  |  |  |  | 
B7 | 0.17 | 0.0004 | 1600 | 29 |  |  |  | 
B8 | 0.11 |  | 113 | 4 |  |  |  | 
B9 | 800 |  | 2040 | 220 |  |  |  | 
B10 |  |  |  |  |  |  | 0.398 | 6
